From US20240117018A1

Columns and labels:
Experiment in all cases: cell-based or functional assay
[1] = target: HIV-1 Env of pseudovirus HIV-16845-2.22 (HIV-1)
[2] = target: HIV-1 Env of pseudovirus CAP45.2.00.G3 (HIV-1)
[3] = target: HIV-1 Env of pseudovirus 62357_14_D3_4589 (HIV-1)
[4] = target: HIV-1 Env of pseudovirus ZM249M.PL1 (HIV-1)
[5] = target: HIV-1 Env of pseudovirus RHPA4259.7 (HIV-1)
[6] = target: HIV-1 Env of pseudovirus Ce1172_H1 (HIV-1)
[7] = target: HIV-1 Env of pseudovirus HIV-001428-2.42 (HIV-1)
[8] = target: HIV-1 Env of pseudovirus SC05_8C11_2344 (HIV-1)
[9] = target: HIV-1 Env of pseudovirus BF1266.431a (HIV-1)
[10] = target: HIV-1 Env of pseudovirus TRJO4551.58 (HIV-1)
[11] = target: HIV-1 Env of pseudovirus 7030102001E5(Rev-) (HIV-1)
[12] = target: HIV-1 Env of pseudovirus 6535.3 (HIV-1)
[13] = target: HIV-1 Env of pseudovirus ZM197M.PB7 (HIV-1)
[14] = target: HIV-1 Env of pseudovirus Ce0682_E4 (HIV-1)
[15] = target: HIV-1 Env of pseudovirus Q461.e2 (HIV-1)
[16] = target: HIV-1 Env of pseudovirus Ce0393_C3 (HIV-1)
[17] = target: HIV-1 Env of pseudovirus Du422.1 (HIV-1)
[18] = target: HIV-1 Env of pseudovirus 246F C1G (HIV-1)
[19] = target: HIV-1 Env of pseudovirus Q23.17 (HIV-1)
[20] = target: HIV-1 Env of pseudovirus 1394C9G1(Rev-) (HIV-1)
[21] = target: HIV-1 Env of pseudovirus CNE5 (HIV-1)
[22] = target: HIV-1 Env of pseudovirus 1056_10_TA11_1826 (HIV-1)
[23] = target: HIV-1 Env of pseudovirus CNE58 (HIV-1)
[24] = target: HIV-1 Env of pseudovirus SC422661.8 (HIV-1)
[25] = target: HIV-1 Env of pseudovirus CNE21 (HIV-1)
[26] = target: HIV-1 Env of pseudovirus 6244_13_B5_4576 (HIV-1)
[27] = target: HIV-1 Env of pseudovirus Ce703010054_2A2 (HIV-1)
[28] = target: HIV-1 Env of pseudovirus 1006_11_C3_1601 (HIV-1)
[29] = target: HIV-1 Env of pseudovirus CNE20 (HIV-1)
[30] = target: HIV-1 Env of pseudovirus CAAN5342.A2 (HIV-1)
[31] = target: HIV-1 Env of pseudovirus Q842.d12 (HIV-1)
[32] = target: HIV-1 Env of pseudovirus HIV-16055-2.3 (HIV-1)
[33] = target: HIV-1 Env of pseudovirus 6240_08_TA5_4622 (HIV-1)
[34] = target: HIV-1 Env of pseudovirus CNE19 (HIV-1)
[35] = target: HIV-1 Env of pseudovirus 1054_07_TC4_1499 (HIV-1)
[36] = target: HIV-1 Env of pseudovirus 3415.v1.c1 (HIV-1)
[37] = target: HIV-1 Env of pseudovirus C2101.c01 (HIV-1)

PGT145 (antibody) showed a neutralization IC50 [1] of over 50 mg/L, a neutralization IC80 [1] of over 50 mg/L and a neutralization IC50 [2] of 0.001 mg/L. It also gave a neutralization IC80 [2] of 0.007 mg/L, a neutralization IC50 [3] of over 50 mg/L and a neutralization IC80 [3] of over 50 mg/L. The neutralization IC50 [4] was 1.44 mg/L, the neutralization IC80 [4] was over 50 mg/L and the neutralization IC50 [5] was 0.029 mg/L. It also gave a neutralization IC80 [5] of 0.095 mg/L, a neutralization IC50 [6] of 0.26 mg/L and a neutralization IC80 [6] of 2.06 mg/L. For the same substance, the neutralization IC50 [7] was 0.001 mg/L, the neutralization IC80 [7] was 0.083 mg/L and the neutralization IC50 [8] was 0.093 mg/L. The neutralization IC80 [8] was 0.248 mg/L, the neutralization IC50 [9] was 1.34 mg/L and the neutralization IC80 [9] was 18.5 mg/L. For the same substance, the neutralization IC50 [10] was over 50 mg/L, the neutralization IC80 [10] was over 50 mg/L and the neutralization IC50 [11] was over 50 mg/L. For the same substance, the neutralization IC80 [11] was over 50 mg/L, the neutralization IC50 [12] was over 50 mg/L and the neutralization IC80 [12] was over 50 mg/L. The neutralization IC50 [13] was 0.628 mg/L, the neutralization IC80 [13] was 5.24 mg/L and the neutralization IC50 [14] was 33.6 mg/L. For the same substance, the neutralization IC80 [14] was over 50 mg/L, the neutralization IC50 [15] was 7.8 mg/L and the neutralization IC80 [15] was over 50 mg/L. For the same substance, the neutralization IC50 [16] was 0.112 mg/L, the neutralization IC80 [16] was 1.23 mg/L and the neutralization IC50 [17] was 22.6 mg/L. For the same substance, the neutralization IC80 [17] was over 50 mg/L, the neutralization IC50 [18] was over 50 mg/L and the neutralization IC80 [18] was over 50 mg/L. For the same substance, the neutralization IC50 [19] was 1.32 mg/L, the neutralization IC80 [19] was over 50 mg/L and the neutralization IC50 [20] was 0.001 mg/L. For the same substance, the neutralization IC80 [20] was 0.005 mg/L, the IC50 (Titer in TZM.bl cells) [21] was 0.001 mg/L and the IC80 (Titer in TZM.bl cells) [21] was 0.013 mg/L. The neutralization IC50 [22] was 0.23 mg/L, the neutralization IC80 [22] was 0.938 mg/L and the neutralization IC50 [23] was 0.183 mg/L. For the same substance, the neutralization IC80 [23] was 7.41 mg/L, the neutralization IC50 [24] was 0.024 mg/L and the neutralization IC80 [24] was 0.082 mg/L. The neutralization IC50 [25] was under 0.001 mg/L, the neutralization IC80 [25] was 0.009 mg/L and the neutralization IC50 [26] was 7.27 mg/L. It also gave a neutralization IC80 [26] of 44.5 mg/L, a neutralization IC50 [27] of over 50 mg/L and a neutralization IC80 [27] of over 50 mg/L. It also gave a neutralization IC50 [28] of over 50 mg/L, a neutralization IC80 [28] of over 50 mg/L and a neutralization IC50 [29] of 0.318 mg/L. It also gave a neutralization IC80 [29] of 6.97 mg/L, a neutralization IC50 [30] of 6.67 mg/L and a neutralization IC80 [30] of 25.5 mg/L. It also gave a neutralization IC50 [31] of 0.032 mg/L, a neutralization IC80 [31] of 0.552 mg/L and a neutralization IC50 [32] of 0.003 mg/L. For the same substance, the neutralization IC80 [32] was 0.051 mg/L, the neutralization IC50 [33] was over 50 mg/L and the neutralization IC80 [33] was over 50 mg/L. The neutralization IC50 [34] was 0.103 mg/L, the neutralization IC80 [34] was 1.13 mg/L and the neutralization IC50 [35] was over 50 mg/L. For the same substance, the neutralization IC80 [35] was over 50 mg/L.
With N49P7.1 (antibody) the IC50 [1] was 1.07 mg/L, the IC80 [1] was 5.4 mg/L and the MPI [1] was 100. For the same substance, the IC50 [2] was 0.086 mg/L, the IC80 [2] was 0.567 mg/L and the MPI [2] was 100. The IC50 [3] was 0.028 mg/L, the IC80 [3] was 0.15 mg/L and the MPI [3] was 100. The IC50 [4] was 0.071 mg/L, the IC80 [4] was 0.239 mg/L and the MPI [4] was 100. The IC50 [5] was 0.108 mg/L, the IC80 [5] was 0.292 mg/L and the MPI [5] was 100. It also gave an IC50 [36] of 0.191 mg/L, an IC80 [36] of 0.647 mg/L and an MPI [36] of 100. The IC50 [6] was 17.1 mg/L, the IC80 [6] was over 50 mg/L and the MPI [6] was 78. The IC50 [7] was 0.009 mg/L, the IC80 [7] was 0.029 mg/L and the MPI [7] was 100. The IC50 [8] was 0.189 mg/L, the IC80 [8] was 0.688 mg/L and the MPI [8] was 100. For the same substance, the IC50 [9] was 0.033 mg/L, the IC80 [9] was 0.11 mg/L and the MPI [9] was 100. It also gave an IC50 [10] of 0.156 mg/L, an IC80 [10] of 0.529 mg/L and an MPI [10] of 100. It also gave an IC50 [11] of 0.11 mg/L, an IC80 [11] of 0.498 mg/L and an MPI [11] of 100. For the same substance, the IC50 [12] was 0.224 mg/L, the IC80 [12] was 0.715 mg/L and the MPI [12] was 100. It also gave an IC50 [13] of 0.144 mg/L, an IC80 [13] of 0.539 mg/L and an MPI [13] of 100. It also gave an IC50 [14] of 0.026 mg/L, an IC80 [14] of 0.099 mg/L and an MPI [14] of 100. It also gave an IC50 [15] of 0.329 mg/L, an IC80 [15] of 1.14 mg/L and an MPI [15] of 100. It also gave an IC50 [16] of 0.23 mg/L, an IC80 [16] of 1.02 mg/L and an MPI [16] of 100. For the same substance, the IC50 [17] was 3.76 mg/L, the IC80 [17] was 15.7 mg/L and the MPI [17] was 93. It also gave an IC50 [18] of 0.049 mg/L, an IC80 [18] of 0.165 mg/L and an MPI [18] of 100. It also gave an IC50 [19] of 0.077 mg/L, an IC80 [19] of 0.208 mg/L and an MPI [19] of 100. For the same substance, the IC50 [20] was 4.37 mg/L, the IC80 [20] was 30.9 mg/L and the MPI [20] was 88. For the same substance, the IC50 [37] was 0.076 mg/L, the IC80 [37] was 0.425 mg/L and the MPI [37] was 100. The IC50 [22] was 0.171 mg/L, the IC80 [22] was 0.603 mg/L and the MPI [22] was 100. The IC50 [23] was 0.049 mg/L, the IC80 [23] was 0.107 mg/L and the MPI [23] was 100. The IC50 [24] was 0.125 mg/L, the IC80 [24] was 0.417 mg/L and the MPI [24] was 100. For the same substance, the IC50 [25] was 1.58 mg/L, the IC80 [25] was 12.2 mg/L and the MPI [25] was 96. For the same substance, the IC50 [26] was 0.184 mg/L, the IC80 [26] was 0.493 mg/L and the MPI [26] was 100. It also gave an IC50 [27] of 0.085 mg/L, an IC80 [27] of 0.364 mg/L and an MPI [27] of 100. The IC50 [28] was 0.061 mg/L, the IC80 [28] was 0.193 mg/L and the MPI [28] was 100. For the same substance, the IC50 [29] was 0.079 mg/L, the IC80 [29] was 0.224 mg/L and the MPI [29] was 100. For the same substance, the IC50 [30] was 0.55 mg/L, the IC80 [30] was 1.59 mg/L and the MPI [30] was 100. The IC50 [31] was 0.028 mg/L, the IC80 [31] was 0.08 mg/L and the MPI [31] was 100. The IC50 [32] was 0.088 mg/L, the IC80 [32] was 0.318 mg/L and the MPI [32] was 100. It also gave an IC50 [33] of 0.509 mg/L, an IC80 [33] of 1.95 mg/L and an MPI [33] of 100. For the same substance, the IC50 [34] was 0.027 mg/L, the IC80 [34] was 0.128 mg/L and the MPI [34] was 100. For the same substance, the IC50 [35] was 0.627 mg/L, the IC80 [35] was 2.98 mg/L and the MPI [35] was 100.
